Measured values published in publication PMC4661090 (FEBS letters, 2015).

Target: the molecule itself
Assay: SEC

Row | Protein | stoichiometry N
1 | thiostrepton resistance methyltransferase Tsr (wild type) (enzyme) MTELDTIANPSDPAVQRIIDVTKPSRSNIKTTLIEDVEPLMHSIAAGVEFIEVYGSDSSPFPSELLDLCGRQNIPVRLIDSSIVNQLFKGERKAKTFGIARVPRPARFGDIASRRGDVVVLDGVKIVGNIGAIVRTSLALGASGIILVDSDITSIADRRLQRASRGYVFSLPVVLSGREEAIAFIRDSGMQLMTLKADGDISVKELGDNPDRLALLFGSEKGGPSDLFEEASSASVSIPMMSQTESLNVSVSLGIALHERIDRNLAANR | 2
2 | Tsr N129A mutant (enzyme, S. cyaneus, UniProt P18644 1-269, looked up) MTELDTIANPSDPAVQRIIDVTKPSRSNIKTTLIEDVEPLMHSIAAGVEFIEVYGSDSSPFPSELLDLCGRQNIPVRLIDSSIVNQLFKGERKAKTFGIARVPRPARFGDIASRRGDVVVLDGVKIVGAIGAIVRTSLALGASGIILVDSDITSIADRRLQRASRGYVFSLPVVLSGREEAIAFIRDSGMQLMTLKADGDISVKELGDNPDRLALLFGSEKGGPSDLFEEASSASVSIPMMSQTESLNVSVSLGIALHERIDRNLAANR | 2
